Substrate in the series: O=C(O)C(=O)Cc1ccc(O)cc1
The experiment in a line: purified protein, by the assay type. The settings on record: other: pH 7.0, apparent, substrate inhibition model, 20.0 °C.

B1: Arabidopsis thaliana HPPD, wild type, SEQ ID NO: 42 (Arabidopsis thaliana) (protein)
chain: MGHQNAAVSENQNHDDGAASSPGFKLVGFSKFVRKNPKSDKFKVKRFHHIEFWCGDATNVARRFSWGLGMRFSAKSDLSTGNMVHASYLLTSGDLRFLFTAPYSPSLSAGEIKPTTTASIPSFDHGSCRSFFSSHGLGVRAVAIEVEDAESAFSISVANGAIPSSPPIVLNEAVTIAEVKLYGDVVLRYVSYKAEDTEKSEFLPGFERVEDASSFPLDYGIRRLDHAVGNVPELGPALTYVAGFTGFHQFAEFTADDVGTAESGLNSAVLASNDEMVLLPINEPVHGTKRKSQIQTYLEHNEGAGLQHLALMSEDIFRTLREMRKRSSIGGFDFMPSPPPTYYQNLKKRVGDVLSDDQIKECEELGILVDRDDQGTLLQIFTKPLGDRPTIFIEIIQRVGCMMKDEEGKAYQSGGCGGFGKGNFSELFKSIEEYEKTLEAKQLVG
On to B1, for which the Michaelis constant (Km) was found to be 13 µM, the catalytic constant (kcat) amounted to 12.9 s⁻¹ and the kcat/Km was found to be 1e+06 M⁻¹ s⁻¹.

The values are drawn from patent US10619138B2, “Herbicide-resistant hydroxyphenylpyruvate dioxygenases” (BASF SE, priority 2013, dated 2020).
